Measurements published in publication PMC4552428, “Distinct Actin and Lipid Binding Sites in Ysc84 Are Required during Early Stages of Yeast Endocytosis” (PLoS ONE, 2015).

Target: Rabbit skeletal muscle actin (rabbit, UniProt P68135 1-377)
Assay: MST; microscale thermophoresis of Ysc84-Nt with monomeric (G-) actin; conditions not shown (S1 File)
Conditions: both partners purified

B1: 6xHis tagged Ysc84-Nt (wild type, N-terminal YAB domain) (domain or fragment)
chain: MGINNPIPRSLKSETKKAAKVLRSFVKPNQVFGADQVIPPYVLKRAKGLAIITVLKAGFLFSGRAGSGVIVARLKDGTWSAPSAIAMAGAGAGGMVGVELTDFVFILNSEEAVRSFSEFGTITLGGNVSVSAGPLGRSAEAAASASTGGVSAVFAYSKSKGLFAGVSVEGSAILERREANRKFYGDNCTSKMILSGRVKVPPAADPLLRILESRAFNF
notes: The His tag was detected on this protein on PIP strips; no cleavage is described; also called Ysc84-Nt WT; wild-type Ysc84-Nt; source: E. coli BL21 DE3, purified (HisTrap HP nickel column)
Question: B1 was tested. Which Kd did it give?
Answer: 850 nM
